The values below come from PMC7736253 (Nature plants, 2020).

Series [1] deals with Rubisco holoenzyme (native Rubisco purified from Chlamydomonas cells) (Chlamydomonas reinhardtii (endogenous in strain cMJ030)) (UniProt P00877). The experiment in a line: SPR. Background: SPR reads the build-up and loss of mass on a sensor chip optically.
For series [2] the target is unchanged. Kind of series: cryo-EM structure.
The series “cryo-EM structure” deals with the molecule itself. The experiment in a line: cryo-EM structure.

Broadly, the Kd is a measure of binding affinity in units of concentration. The low end stands for higher affinity, the high end for lower affinity. As a reminder, the stoichiometry N is the number of molecules, sites or subunits per partner or assembly. Turning to EPYC1_(49-72) peptide, in series [1], the Kd amounted to 3 mM. The molecule further showed a stoichiometry N in series [2] of under 8. EPYC1_(106-135) peptide gave a stoichiometry N in series [2] of under 8.

B1: Rubisco large subunit (in the native holoenzyme) (natural protein, UniProt P00877 3-475, looked up)
chain: PQTETKAGAGFKAGVKDYRLTYYTPDYVVRDTDILAAFRMTPQLGVPPEECGAAVAAESSTGTWTTVWTDGLTSLDRYKGRCYDIEPVPGEDNQYIAYVAYPIDLFEEGSVTNMFTSIVGNVFGFKALRALRLEDLRIPPAYVKTFVGPPHGIQVERDKLNKYGRGLLGCTIKPKLGLSAKNYGRAVYECLRGGLDFTKDDENVNSQPFMRWRDRFLFVAEAIYKAQAETGEVKGHYLNATAGTCEEMMKRAVCAKELGVPIIMHDYLTGGFTANTSLAIYCRDNGLLLHIHRAMHAVIDRQRNHGIHFRVLAKALRMSGGDHLHSGTVVGKLEGEREVTLGFVDLMRDDYVEKDRSRGIYFTQDWCSMPGVMPVASGGIHVWHMPALVEIFGDDACLQFGGGTLGHPWGNAPGAAANRVALEACTQARNEGRDLAREGGDVIRSACKWSPELAAACEVWKEIKFEFDTIDKL
Regarding B1, the “stoichiometry N” value in “cryo-EM structure” was determined as 8.
